Experimental findings from patent publication US20130029902A1 (PHARIS BIOTECH, published 2013) are described below.

Some results are limits rather than exact numbers.

The target of assay [1] is T1, EGFP-hCXCR4 (human, UniProt P61073 1-352). The experiment in a line: competition with CXCL12-Tr on CXCR4 expressing HEK293 cells, FRET. How it is done:
(§1) The CXCR4 receptor is stably transfected in Human Embryonic Kidney (HEK) cells as a fusion protein with the EGFP fluorescent protein fused to the extracellular amino-terminal part of the receptor (EGFP-CXCR4). The human chemokines CXCL12 and CXCL12-TexasRed were synthesized as described (Amara et al., 1999, JBC 274:23916-23925; Valenzuela-Fernandez, et al., 2001, JBC 276:26550-26558). Real-time fluorescence monitoring of ligand-receptor interactions was performed as followed: HEK293 cells expressing the fusion receptor, EGFP-hCXCR4, were harvested in phosphate-buffered saline supplemented with 5 mM EDTA, pH 7.4, centrifuged and resuspended in HEPES-bovine serum albumin buffer (10 mM HEPES, 137.5 mM NaCl, 1.25 mM MgCl2, 1.25 mM CaCl2, 6 mM KCl, 10 mM glucose, 0.4 mM NaH2PO4, 1% bovine serum albumin (w/v), pH 7.4) supplemented with protease inhibitors (40 μg/mL bestatin and bacitracin, 20 μg/mL phosphoramidon, 50 μg/mL chymostatin, and 1 μg/mL leupeptin). […] Time-based recordings of the fluorescence emitted at 510 nm (excitation at 470 nm) were performed at 21° C. using a spectrofluorimeter (fluorolog 2, Spex) and sampled every 0.3 s. Fluorescence binding measurements were initiated by adding at 30 seconds 100 nM of CXCL12-TR to 1 mL cell suspension. […] Then, CXCL12-TR (100 nM) was added and fluorescence was recorded until equilibrium was reached (300 sec). […]

For assay [2], the target named is T1, EGFP-hCXCR4. Nature of the assay: competition with 100 nM CXCL12-TR on HEK293 cells expressing EGFP-hCXCR4, FRET. How it is done:
as §1

The next assay deals with CXCR4 (UniProt P61073 1-352, limits assumed). Nature of the assay: cell-based or functional assay.

T1 sequence (P61073 whole entry, the tested form may be a part): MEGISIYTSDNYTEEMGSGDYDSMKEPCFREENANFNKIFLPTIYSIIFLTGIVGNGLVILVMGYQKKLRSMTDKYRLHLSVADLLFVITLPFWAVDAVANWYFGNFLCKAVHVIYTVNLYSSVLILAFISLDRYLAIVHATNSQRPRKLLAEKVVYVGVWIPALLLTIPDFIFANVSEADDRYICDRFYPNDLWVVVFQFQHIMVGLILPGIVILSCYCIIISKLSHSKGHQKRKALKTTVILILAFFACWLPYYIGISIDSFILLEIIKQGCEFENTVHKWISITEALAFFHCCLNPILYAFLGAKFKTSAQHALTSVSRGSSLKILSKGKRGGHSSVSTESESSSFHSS

B1: ALB408-413 (peptide)
peptide: LVRYTK
notes: Synthetic fragment of human serum albumin
Take B1: the dissociation constant Kd – broadly, the free concentration of one partner at which half of the binding sites on the other are occupied at equilibrium, for simple one-to-one binding – with EGFP-hCXCR4 [1] is over 200 µM.

B2: ALB408-423 (peptide)
peptide: LVRYTKKVPQVSTPTL
notes: also called Human circulating antiviral albumin fragment; wild type peptide
Take B2: in the assay with EGFP-hCXCR4 [2], the EC50 – broadly, the concentration that produces a half-maximal response – turned out to be 8 µM and the Ki (commonly a dissociation constant, usually derived from enzyme kinetics or from competition with a known ligand) amounted to 3 µM. In addition, in the assay with CXCR4, the “IC50, HIV-1 NL4-3 infection of TZM-bl cells (fraction 31 from hemofiltrate)” value was 21.4 µg/mL; the “IC50, X4 tropic HIV-1 and HIV-2 infection of TZM-bl cells” value lay within 10 to 20 µM; the “mean IC50, infection of TZM-bl cells by X4-tropic HIV-1 variants” value amounted to 24.2 µg/mL.
